Test results: paper PMC12072002, “Site-Directed Mutagenesis Increased the Catalytic Activity and Stability of Oenococcus oeni β-Glucosidase: Characterization of Enzymatic Properties and Exploration of Mechanisms” (International Journal of Molecular Sciences, 2025)
Marks after values point to notes of the source that are not given here.

Experiments:
Experiment in all cases: p-Nitrophenol release read at 420 nm after Na2CO3 stop, 0.1-25 mM substrate in 20 mM sodium phosphate buffer at each enzyme's optimum (wild type pH 5.0, 50 °C; mutant III pH 3.5, 50 °C; mutant IV pH 4.0, 45 °C), Hill function fit in Origin.
Assay type in all cases: biochemical
[1] = substrate: O=[N+]([O-])c1ccc(O[C@@H]2O[C@H](CO)[C@H](O)[C@H](O)[C@H]2O)cc1
Description: (§1) 3.9. Enzymatic Reaction Kinetics and Substrate Specificity
(§2) The determination of enzymatic reaction kinetics was conducted according to Zhang et al., with slight modifications. Different concentrations (0.1 mM, 0.2 mM, 0.5 mM, 1.0 mM, 2.0 mM, 5.0 mM, 8.0 mM, 10 mM, 12 mM, 15 mM, 20 mM and 25 mM) of p-NPG substrate solutions were prepared with 20 mM sodium phosphate buffer. Then, 100 μg of enzyme lyophilized powder were added to 500 μL of p-NPG solutions at different concentrations. Next, this was reacted for 0 min, 5 min, 10 min, 15 min, 20 min, 25 min and 30 min under optimal reaction conditions, and at the end of each set of reactions, 500 μL 1 M of Na2CO3 solution were added to terminate the reaction. The absorbance value of each reaction system was measured at 420 nm and the amount of p-NP corresponding to different reaction times at specific substrate concentrations was calculated from the standard curve. The kinetic constants (Vmax and Km) of each reaction system were determined by fitting using the Hill function in the class of Growth/Inverse Curve for nonlinear fitting in the Origin Pro 8.0 software.
(§3) All experiments were set up in three parallels. The activities of the wild-type enzyme and five mutants were analyzed by ANOVA at the significance level of p < 0.05 using the SPSS 26.0 software, and multiple comparisons of the means were performed using Duncan’s method. The kinetic parameters of the enzymatic reactions for the wild-type enzyme and mutants catalyzing four substrates were subjected to independent sample t-tests at a significance level of p < 0.05, and the data were expressed as mean ± standard deviation. The experimental results were plotted using the Origin 2021 software.

[2] = substrate: O=[N+]([O-])c1ccc(O[C@H]2O[C@H](CO)[C@@H](O)[C@H](O)[C@H]2O)cc1
Description: as §1, §2, §3

[3] = substrate: O=[N+]([O-])c1ccc(O[C@@H]2O[C@H](CO)[C@@H](O)[C@H](O)[C@H]2O)cc1
Description: as §1, §2, §3

[4] = substrate: O=[N+]([O-])c1ccc(O[C@@H]2OC[C@@H](O)[C@H](O)[C@H]2O)cc1
Description: as §1, §2, §3

B1: mutant III (Oenococcus oeni PSU-1; F133K) (protein)
chain: MNKLFLPKNFLWGGAVAANQLEGGWDQDNKGLSVADIMTAGANGKAREITDGIVKGKYYPNHEAIDFYHRYKEDIKLFAEMGFKCFRTSIAWTRIFPNGDEEQPNEAGLKFYDQLFDECHKYGIEPVITLSHKEMPYHLVKAYGGWRNRKLIDFFVRFAKTVFKRYKDKVSYWMTFNEIDNQTDYTNRFLMATNSGLILKNDQSDAESLMYQAAHYELVASALAVKLGHSINPNFQIGCMINMTPVYPASSKPADIFQAEKAMQRRYWFSDIHALGKYPENMEVFLKQNNFRPDITSEDRIVLKEGTVDYIGLSYYNSMTVQSKESNPGFHFIGPELTVDNPNVEKSDWGWPIDPLGLRYSLNWLADHYHKPLFIVENGLGAYDKVENSQQIHDPYRIAYLKAHIQAMIDAVQEDGVKVIGYTPWGCIDLVSAGTGQMSKRYGFIYVDKDDQGKGSLKRLKKDSFFWYQQVIQSNGSQLD
notes: purified recombinant, pMG36e plasmid, expressed in Lactococcus lactis MG1363
Km [1]: 0.52 ± 0.17 ^a mM
Vmax [1]: 349 ± 4.83 µM/min/mg
kcat [1]: 321 ± 4.44 s⁻¹
kcat/Km [1]: 617000 M⁻¹ s⁻¹
Km [2]: 1.19 ± 0.23 ^b mM
Vmax [2]: 25.8 ± 2.06 µM/min/mg
kcat [2]: 23.7 ± 1.89 s⁻¹
kcat/Km [2]: 19900 M⁻¹ s⁻¹
Km [3]: 0.27 ± 0.05 ^b mM
Vmax [3]: 533 ± 6.51 µM/min/mg
kcat [3]: 490 ± 5.98 s⁻¹
kcat/Km [3]: 1.81e+06 M⁻¹ s⁻¹
Km [4]: 1.24 ± 0.13 ^b mM
Vmax [4]: 337 ± 4.61 µM/min/mg
kcat [4]: 310 ± 4.24 s⁻¹
kcat/Km [4]: 250000 M⁻¹ s⁻¹

B2: mutant IV (Oenococcus oeni PSU-1; N181R) (protein)
chain: MNKLFLPKNFLWGGAVAANQLEGGWDQDNKGLSVADIMTAGANGKAREITDGIVKGKYYPNHEAIDFYHRYKEDIKLFAEMGFKCFRTSIAWTRIFPNGDEEQPNEAGLKFYDQLFDECHKYGIEPVITLSHFEMPYHLVKAYGGWRNRKLIDFFVRFAKTVFKRYKDKVSYWMTFNEIDRQTDYTNRFLMATNSGLILKNDQSDAESLMYQAAHYELVASALAVKLGHSINPNFQIGCMINMTPVYPASSKPADIFQAEKAMQRRYWFSDIHALGKYPENMEVFLKQNNFRPDITSEDRIVLKEGTVDYIGLSYYNSMTVQSKESNPGFHFIGPELTVDNPNVEKSDWGWPIDPLGLRYSLNWLADHYHKPLFIVENGLGAYDKVENSQQIHDPYRIAYLKAHIQAMIDAVQEDGVKVIGYTPWGCIDLVSAGTGQMSKRYGFIYVDKDDQGKGSLKRLKKDSFFWYQQVIQSNGSQLD
notes: as for B1
Km [1]: 0.87 ± 0.24 ^c mM
Vmax [1]: 257 ± 5.47 µM/min/mg
kcat [1]: 237 ± 5.03 s⁻¹
kcat/Km [1]: 272000 M⁻¹ s⁻¹
Km [2]: 1.27 ± 0.19 ^c mM
Vmax [2]: 19.9 ± 1.98 µM/min/mg
kcat [2]: 18.4 ± 1.82 s⁻¹
kcat/Km [2]: 14400 M⁻¹ s⁻¹
Km [3]: 0.22 ± 0.03^a mM
Vmax [3]: 841.6 ± 3.82 µM/min/mg
kcat [3]: 773.6 ± 3.52 s⁻¹
kcat/Km [3]: 3.52e+06 M⁻¹ s⁻¹
Km [4]: 1.17 ± 0.16 ^a mM
Vmax [4]: 359 ± 3.88 µM/min/mg
kcat [4]: 330 ± 3.57 s⁻¹
kcat/Km [4]: 282000 M⁻¹ s⁻¹

B3: wild-type enzyme (Oenococcus oeni PSU-1) (protein)
chain: MNKLFLPKNFLWGGAVAANQLEGGWDQDNKGLSVADIMTAGANGKAREITDGIVKGKYYPNHEAIDFYHRYKEDIKLFAEMGFKCFRTSIAWTRIFPNGDEEQPNEAGLKFYDQLFDECHKYGIEPVITLSHFEMPYHLVKAYGGWRNRKLIDFFVRFAKTVFKRYKDKVSYWMTFNEIDNQTDYTNRFLMATNSGLILKNDQSDAESLMYQAAHYELVASALAVKLGHSINPNFQIGCMINMTPVYPASSKPADIFQAEKAMQRRYWFSDIHALGKYPENMEVFLKQNNFRPDITSEDRIVLKEGTVDYIGLSYYNSMTVQSKESNPGFHFIGPELTVDNPNVEKSDWGWPIDPLGLRYSLNWLADHYHKPLFIVENGLGAYDKVENSQQIHDPYRIAYLKAHIQAMIDAVQEDGVKVIGYTPWGCIDLVSAGTGQMSKRYGFIYVDKDDQGKGSLKRLKKDSFFWYQQVIQSNGSQLD
notes: purified recombinant BGL0224 (MT330371.1), plasmid pMG36e-0224, expressed in Lactococcus lactis MG1363
Km [1]: 0.81 ± 0.16 ^b mM
Vmax [1]: 231 ± 5.71 µM/min/mg
kcat [1]: 212 ± 5.25 s⁻¹
kcat/Km [1]: 262000 M⁻¹ s⁻¹
Km [2]: 1.07 ± 0.20 ^a mM
Vmax [2]: 29.6 ± 1.83 µM/min/mg
kcat [2]: 27.2 ± 1.68 s⁻¹
kcat/Km [2]: 25400 M⁻¹ s⁻¹
Km [3]: 0.33 ± 0.03 ^c mM
Vmax [3]: 363 ± 4.13 µM/min/mg
kcat [3]: 334 ± 3.8 s⁻¹
kcat/Km [3]: 1.01e+06 M⁻¹ s⁻¹
Km [4]: 1.31 ± 0.22 ^c mM
Vmax [4]: 308 ± 3.64 µM/min/mg
kcat [4]: 283 ± 3.34 s⁻¹
kcat/Km [4]: 216000 M⁻¹ s⁻¹
